The text below walks through data of PMC12626770 (Protein Science : A Publication of the Protein Society, 2025).

The target in this test is T1, Human transferrin receptor 1 (TfR), avi-tagged, biotinylated (human, UniProt P02786 101-760).
T1 construct: also called biotinylated TfR
The test is described as follows: flow cytometry on cells; yeast surface display titration; varied TfR concentration, normalized MFU fitted non-linearly, averaged from three experiments; apparent Kd. To be noted: one partner purified. (A flow cytometer gives signals particle by particle.)

T1 sequence (P02786 101-760): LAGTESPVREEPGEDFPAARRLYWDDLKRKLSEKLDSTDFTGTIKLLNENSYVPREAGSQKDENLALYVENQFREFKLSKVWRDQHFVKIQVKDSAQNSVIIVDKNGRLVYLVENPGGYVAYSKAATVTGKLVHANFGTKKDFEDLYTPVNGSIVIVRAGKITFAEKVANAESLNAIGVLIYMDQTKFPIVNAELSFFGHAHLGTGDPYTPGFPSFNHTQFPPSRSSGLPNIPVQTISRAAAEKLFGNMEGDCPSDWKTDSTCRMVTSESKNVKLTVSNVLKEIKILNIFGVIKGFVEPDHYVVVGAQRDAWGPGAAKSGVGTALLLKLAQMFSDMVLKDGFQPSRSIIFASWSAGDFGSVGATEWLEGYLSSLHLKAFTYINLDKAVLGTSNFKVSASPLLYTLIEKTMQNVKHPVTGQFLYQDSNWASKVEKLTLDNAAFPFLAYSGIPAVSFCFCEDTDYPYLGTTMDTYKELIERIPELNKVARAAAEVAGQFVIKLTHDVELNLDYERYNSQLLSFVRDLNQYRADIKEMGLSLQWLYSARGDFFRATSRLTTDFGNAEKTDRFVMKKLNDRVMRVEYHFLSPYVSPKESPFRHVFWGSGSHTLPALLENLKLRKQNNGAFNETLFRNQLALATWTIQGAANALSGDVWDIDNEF

B1: TB14.3A T78I (S4.4), yeast surface displayed (designed binder)
chain: MEKRFYVLLIIVEDRKKAYRQVNELLHNFSEYILLRMGQDHRERYQSTIALVLKVDNDAIGALSGKLGQISGVKVMTIPEKRGSLE
modifications: biotinylated
On to B1, for which the Kd came to 305 ± 55 nM.
